Measured values from paper PMC11055865, “Mechanism of DNA unwinding by MCM8-9 in complex with HROB” (Nature Communications, 2023).

B1: MCM8-9 complex (FLAG-tagged MCM8 and MBP-tagged MCM9), wild type (complex)
chain 1: MNGEYRGRGFGRGRFQSWKRGRGGGNFSGKWREREHRPDLSKTTGKRTSEQTPQFLLSTKTPQSMQSTLDRFIPYKGWKLYFSEVYSDSSPLIEKIQAFEKFFTRHIDLYDKDEIERKGSILVDFKELTEGGEVTNLIPDIATELRDAPEKTLACMGLAIHQVLTKDLERHAAELQAQEGLSNDGETMVNVPHIHARVYNYEPLTQLKNVRANYYGKYIALRGTVVRVSNIKPLCTKMAFLCAACGEIQSFPLPDGKYSLPTKCPVPVCRGRSFTALRSSPLTVTMDWQSIKIQELMSDDQREAGRIPRTIECELVHDLVDSCVPGDTVTITGIVKVSNAEEGSRNKNDKCMFLLYIEANSISNSKGQKTKSSEDGCKHGMLMEFSLKDLYAIQEIQAEENLFKLIVNSLCPVIFGHELVKAGLALALFGGSQKYADDKNRIPIRGDPHILVVGDPGLGKSQMLQAACNVAPRGVYVCGNTTTTSGLTVTLSKDSSSGDFALEAGALVLGDQGICGIDEFDKMGNQHQALLEAMEQQSISLAKAGVVCSLPARTSIIAAANPVGGHYNKAKTVSENLKMGSALLSRFDLVFILLDTPNEHHDHLLSEHVIAIRAGKQRTISSATVARMNSQDSNTSVLEVVSEKPLSERLKVVPGETIDPIPHQLLRKYIGYARQYVYPRLSTEAARVLQDFYLELRKQSQRLNSSPITTRQLESLIRLTEARARLELREEATKEDAEDIVEIMKYSMLGTYSDEFGNLDFERSQHGSGMSNRSTAKRFISALNNVAERTYNNIFQFHQLRQIAKELNIQVADFENFIGSLNDQGYLLKKGPKVYQLQTM
chain 2: not shown
notes: MCM8, human; vector pFB-FLAG-MCM8; MCM9, human; vector pFB-MBP-MCM9; Major species is a heterodimer; tetramers and hexamers are also present; also called MCM8-9 heterodimer; dimer-rich MCM8-9; source: MBP tag not cleaved; for the amylose pull-down captured from Sf9 lysate on amylose resin and washed; not shown: FLAG, N-terminal, kept; MBP, N-terminal, kept

Key:
[1] = target: B1; assay: pull-down; MBP-MCM9/FLAG-MCM8 (or pMCM8-9, with or without λ-phosphatase treatment on the resin) immobilized on amylose resin from Sf9 lysate and washed; 1 µg wild type or mutant HROB in 50 mM Tris-HCl pH 7.5, 3 mM EDTA, 100 mM NaCl, 1 h at 4 °C; maltose elution, western blotting; conditions: both partners purified
[2] = target: the molecule itself; assay: mass photometry; protein alone in solution, no DNA; 50-200 nM final protein in 50 mM Tris-HCl pH 7.5, 100 mM NaCl; oligomeric state of MCM8-9 unchanged with ATP-γ-S

binding result [1] | Binder | binding result [2]
binds | HROB-L405D (natural protein, human, UniProt Q8N3J3-4 1-646, looked up, HROB, human; numbers count on: isoform 1 (Q8N3J3-1); not shown: FLAG, C-terminal, kept) MACSLQKLFAVEEEFEDEDFLSAVEDAENRFTGSLPVNAGRLRPVSSRPQETVQAQSSRLLLLHPTAPSEALGLPDLDLCLPASSTPSADSRPSCIGAAPLRPVSTSSSWIGNQRRVTVTEVLREPARPQSSALHPLLTFESQQQQVGGFEGPEQDEFDKVLASMELEEPGMELECGVSSEAIPILPAQQREGSVLAKKARVVDLSGSCQKGPVPAIHKAGIMSAQDESLDPVIQCRTPRPPLRPGAVGHLPVPTALTVPTQQLHWEVCPQRSPVQALQPLQAARGTIQSSPQNRFPCQPFQSPSSWLSGKAHLPRPRTPNSSCSTPSRTSSGLFPRIPLQPQAPVSSIGSPVGTPKGPQGALQTPIVTNHLVQLVTAASRTPQQPTHPSTRAKTRRFPGPAGIDPHQQSGRSLEDIMVSAPQTPTHGALAKFQTEIVASSQASVEEDFGRGPWLTMKSTLGLDERDPSCFLCTYSIVMVLRKAALKQLPRNKVPNMAVMIKSLTRSTMDASVVFKDPTGEMQGTVHRLLLETCQNELKPGSVLLLKQIGVFSPSLRNHYLNVTPNNLVHIYSPDSGDGSFLKPSQPFPKDSGSFQHDVAAKPEEGFRTAQNLEAEASPEEELPEADDLDGLLSELPEDFFCGTSS | 
 | B1 | binds
